Assay results as given in patent publication US20100260668A1 (published 2010).
Blank lines part the entries; values can stand above or below the binder they belong to.

Assays:
[1] = biological target: T1, VEGF (VEGF 1-165 aa, R&D Systems 293-VE-010) (UniProt P15692 27-191); experiment: Direct bind ELISA, VEGF coated on plate; VEGF domain C-term., HC long/LC long
T1 construct: bought reagent; also called vascular endothelial growth factor

[2] = biological target: T1, VEGF (VEGF 1-165 aa, R&D Systems …); experiment: Direct bind ELISA, VEGF coated on plate; VEGF domain C-term., HC short/LC long
[3] = biological target: T1, VEGF (VEGF 1-165 aa, R&D Systems …); experiment: Direct bind ELISA, VEGF coated on plate; VEGF domain N-term., HC short/LC long
[4] = biological target: T1, VEGF (VEGF 1-165 aa, R&D Systems …); experiment: Direct bind ELISA, VEGF coated on plate; VEGF domain N-term., HC long/LC short
[5] = biological target: T1, VEGF (VEGF 1-165 aa, R&D Systems …); experiment: Direct bind ELISA, VEGF coated on plate; VEGF domain C-term., HC long/LC short

T1 sequence (P15692 other isoform, or with tags, fused parts or gaps limits assumed): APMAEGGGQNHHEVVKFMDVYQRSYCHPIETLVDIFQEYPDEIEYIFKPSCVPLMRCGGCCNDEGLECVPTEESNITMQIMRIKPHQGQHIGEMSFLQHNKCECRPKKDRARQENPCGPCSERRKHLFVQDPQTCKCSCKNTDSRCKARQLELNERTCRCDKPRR

B1: DVD495 (bispecific antibody, human IgG1, kappa)
heavy: not shown
light: DIQMTQSSSYLSVSLGGRVTITCKASDHINNWLAWYQQKPGNAPRLLISGATSLETGVPSRFSGSGSGKDYTLSITSLQTEDVATYYCQQYWSIPLTFGAGTKLELKRTVAAPSVFIFPPDIQMTQSPSSLSASVGDRVTITCRASQDVSTAVAWYQQKPGKAPKLLIYSASFLYSGVPSRFSGSGSGTDFTLTISSLQPEDFATYYCQQSYTTPPTFGQGTKVEIKRTVAAPSVFIFPPSDEQLKSGTASVVCLLNNFYPREAKVQWKVDNALQSGNSQESVTEQDSKDSTYSLSSTLTLSKADYEKHKVYACEVTHQGLSSPVTKSFNRGEC
notes: DVD-Ig; N-term; AB072 (DLL4), C-term; AB070 (VEGF); HC linker long, LC linker long; also called DVD-Ig DVD495; DVD495H/DVD495L
- EC50 [1]: 70 nM

B2: DVD507 (bispecific antibody, human IgG1, kappa, L234A L235A)
heavy: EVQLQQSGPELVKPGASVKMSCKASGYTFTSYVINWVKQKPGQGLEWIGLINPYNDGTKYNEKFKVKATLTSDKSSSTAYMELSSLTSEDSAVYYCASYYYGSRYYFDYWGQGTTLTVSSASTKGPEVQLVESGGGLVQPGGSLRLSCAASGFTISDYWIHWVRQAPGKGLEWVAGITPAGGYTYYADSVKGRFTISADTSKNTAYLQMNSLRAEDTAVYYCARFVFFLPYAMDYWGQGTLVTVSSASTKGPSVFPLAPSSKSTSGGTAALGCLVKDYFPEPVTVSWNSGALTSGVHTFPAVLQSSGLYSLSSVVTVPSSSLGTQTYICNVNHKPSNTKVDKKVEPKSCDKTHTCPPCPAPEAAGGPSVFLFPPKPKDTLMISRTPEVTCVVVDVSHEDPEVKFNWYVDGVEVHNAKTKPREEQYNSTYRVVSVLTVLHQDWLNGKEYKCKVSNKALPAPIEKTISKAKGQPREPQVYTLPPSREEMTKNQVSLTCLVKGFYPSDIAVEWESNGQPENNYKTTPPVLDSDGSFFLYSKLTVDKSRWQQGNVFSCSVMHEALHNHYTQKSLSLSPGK
light: DIQMTQSSSYLSVSLGGRVTITCKASDHINNWLAWYQQKPGNAPRLLISGATSLETGVPSRFSGSGSGKDYTLSITSLQTEDVATYYCQQYWSIPLTFGAGTKLELKRTVAAPSVFIFPPDIQMTQSPSSLSASVGDRVTITCRASQDVSTAVAWYQQKPGKAPKLLIYSASFLYSGVPSRFSGSGSGTDFTLTISSLQPEDFATYYCQQSYTTPPTFGQGTKVEIKRTVAAPSVFIFPPSDEQLKSGTASVVCLLNNFYPREAKVQWKVDNALQSGNSQESVTEQDSKDSTYSLSSTLTLSKADYEKHKVYACEVTHQGLSSPVTKSFNRGEC
notes: DVD-Ig; N-term; AB072 (DLL4), C-term; AB070 (VEGF); HC linker short, LC linker long; also called DVD-Ig DVD507; DVD507H/DVD507L
- EC50 [2]: 34.9 nM

B3: DVD510 (bispecific antibody, human IgG1, kappa)
heavy: not shown
light: DIQMTQSPSSLSASVGDRVTITCRASQVIRRSLAWYQQKPGKAPKLLIYAASNLASGVPSRFSGSGSGTDFTLTISSLQPEDFATYYCQQSNTSPLTFGQGTKVEIKRTVAAPSVFIFPPDIQMTQSSSYLSVSLGGRVTITCKASDHINNWLAWYQQKPGNAPRLLISGATSLETGVPSRFSGSGSGKDYTLSITSLQTEDVATYYCQQYWSIPLTFGAGTKLELKRTVAAPSVFIFPPSDEQLKSGTASVVCLLNNFYPREAKVQWKVDNALQSGNSQESVTEQDSKDSTYSLSSTLTLSKADYEKHKVYACEVTHQGLSSPVTKSFNRGEC
notes: DVD-Ig; N-term; AB071 (VEGF), C-term; AB072 (DLL4); HC linker short, LC linker long; also called DVD-Ig DVD510; DVD510H/DVD510L
- EC50 [3]: 23.9 nM

- EC50 [4]: 3.25 nM
B4: DVD502 (bispecific antibody, human IgG1, kappa)
heavy: not shown
light: DIQMTQSPSSLSASVGDRVTITCRASQDVSTAVAWYQQKPGKAPKLLIYSASFLYSGVPSRFSGSGSGTDFTLTISSLQPEDFATYYCQQSYTTPPTFGQGTKVEIKRTVAAPDIQMTQSSSYLSVSLGGRVTITCKASDHINNWLAWYQQKPGNAPRLLISGATSLETGVPSRFSGSGSGKDYTLSITSLQTEDVATYYCQQYWSIPLTFGAGTKLELKRTVAAPSVFIFPPSDEQLKSGTASVVCLLNNFYPREAKVQWKVDNALQSGNSQESVTEQDSKDSTYSLSSTLTLSKADYEKHKVYACEVTHQGLSSPVTKSFNRGEC
notes: DVD-Ig; N-term; AB070 (VEGF), C-term; AB072 (DLL4); HC linker long, LC linker short; also called DVD-Ig DVD502; DVD502H/DVD502L

B5: DVD509 (bispecific antibody, human IgG1, kappa)
heavy: not shown
light: DIQMTQSSSYLSVSLGGRVTITCKASDHINNWLAWYQQKPGNAPRLLISGATSLETGVPSRFSGSGSGKDYTLSITSLQTEDVATYYCQQYWSIPLTFGAGTKLELKRTVAAPSVFIFPPDIQMTQSPSSLSASVGDRVTITCRASQVIRRSLAWYQQKPGKAPKLLIYAASNLASGVPSRFSGSGSGTDFTLTISSLQPEDFATYYCQQSNTSPLTFGQGTKVEIKRTVAAPSVFIFPPSDEQLKSGTASVVCLLNNFYPREAKVQWKVDNALQSGNSQESVTEQDSKDSTYSLSSTLTLSKADYEKHKVYACEVTHQGLSSPVTKSFNRGEC
notes: DVD-Ig; N-term; AB072 (DLL4), C-term; AB071 (VEGF); HC linker short, LC linker long; also called DVD-Ig DVD509; DVD509H/DVD509L
- EC50 [2]: 121 nM

- EC50 [5]: 45.2 nM
B6: DVD501 (bispecific antibody, human IgG1, kappa)
heavy: not shown
light: DIQMTQSSSYLSVSLGGRVTITCKASDHINNWLAWYQQKPGNAPRLLISGATSLETGVPSRFSGSGSGKDYTLSITSLQTEDVATYYCQQYWSIPLTFGAGTKLELKRTVAAPDIQMTQSPSSLSASVGDRVTITCRASQDVSTAVAWYQQKPGKAPKLLIYSASFLYSGVPSRFSGSGSGTDFTLTISSLQPEDFATYYCQQSYTTPPTFGQGTKVEIKRTVAAPSVFIFPPSDEQLKSGTASVVCLLNNFYPREAKVQWKVDNALQSGNSQESVTEQDSKDSTYSLSSTLTLSKADYEKHKVYACEVTHQGLSSPVTKSFNRGEC
notes: DVD-Ig; N-term; AB072 (DLL4), C-term; AB070 (VEGF); HC linker long, LC linker short; also called DVD-Ig DVD501; DVD501H/DVD501L

- EC50 [4]: 96.2 nM
B7: DVD526 (bispecific antibody, human IgG1, lambda)
heavy: not shown
light: DIQMTQSPSSLSASVGDRVTITCRASQDVSTAVAWYQQKPGKAPKLLIYSASFLYSGVPSRFSGSGSGTDFTLTISSLQPEDFATYYCQQSYTTPPTFGQGTKVEIKRTVAAPQAVVTQESALTTSPGETVTLTCRSSTGAVTTSNYANWVQEKPDHLFTGLIGGTNNRAPGVPARFSGSLIGDKAALTITGAQTEDEAIYFCALWYSNHWVFGGGTKLTVLGQPKAAPSVTLFPPSSEELQANKATLVCLISDFYPGAVTVAWKADSSPVKAGVETTTPSKQSNNKYAASSYLSLTPEQWKSHRSYSCQVTHEGSTVEKTVAPTECS
notes: DVD-Ig; N-term; AB070 (VEGF), C-term; AB073 (DLL4); HC linker long, LC linker short; also called DVD-Ig DVD526; DVD526H/DVD526L

B8: DVD531 (bispecific antibody, human IgG1, kappa, lambda)
heavy: not shown
light: QAVVTQESALTTSPGETVTLTCRSSTGAVTTSNYANWVQEKPDHLFTGLIGGTNNRAPGVPARFSGSLIGDKAALTITGAQTEDEAIYFCALWYSNHWVFGGGTKLTVLGQPKAAPSVTLFPPDIQMTQSPSSLSASVGDRVTITCRASQDVSTAVAWYQQKPGKAPKLLIYSASFLYSGVPSRFSGSGSGTDFTLTISSLQPEDFATYYCQQSYTTPPTFGQGTKVEIKRTVAAPSVFIFPPSDEQLKSGTASVVCLLNNFYPREAKVQWKVDNALQSGNSQESVTEQDSKDSTYSLSSTLTLSKADYEKHKVYACEVTHQGLSSPVTKSFNRGEC
notes: DVD-Ig; N-term; AB073 (DLL4), C-term; AB070 (VEGF); HC linker short, LC linker long; also called DVD-Ig DVD531; DVD531H/DVD531L
- EC50 [2]: 60.4 nM

- EC50 [4]: 16.7 nM
B9: DVD504 (bispecific antibody, human IgG1, kappa)
heavy: not shown
light: DIQMTQSPSSLSASVGDRVTITCRASQVIRRSLAWYQQKPGKAPKLLIYAASNLASGVPSRFSGSGSGTDFTLTISSLQPEDFATYYCQQSNTSPLTFGQGTKVEIKRTVAAPDIQMTQSSSYLSVSLGGRVTITCKASDHINNWLAWYQQKPGNAPRLLISGATSLETGVPSRFSGSGSGKDYTLSITSLQTEDVATYYCQQYWSIPLTFGAGTKLELKRTVAAPSVFIFPPSDEQLKSGTASVVCLLNNFYPREAKVQWKVDNALQSGNSQESVTEQDSKDSTYSLSSTLTLSKADYEKHKVYACEVTHQGLSSPVTKSFNRGEC
notes: DVD-Ig; N-term; AB071 (VEGF), C-term; AB072 (DLL4); HC linker long, LC linker short; also called DVD-Ig DVD504; DVD504H/DVD504L

- EC50 [5]: 430 nM
B10: DVD503 (bispecific antibody, human IgG1, kappa)
heavy: not shown
light: DIQMTQSSSYLSVSLGGRVTITCKASDHINNWLAWYQQKPGNAPRLLISGATSLETGVPSRFSGSGSGKDYTLSITSLQTEDVATYYCQQYWSIPLTFGAGTKLELKRTVAAPDIQMTQSPSSLSASVGDRVTITCRASQVIRRSLAWYQQKPGKAPKLLIYAASNLASGVPSRFSGSGSGTDFTLTISSLQPEDFATYYCQQSNTSPLTFGQGTKVEIKRTVAAPSVFIFPPSDEQLKSGTASVVCLLNNFYPREAKVQWKVDNALQSGNSQESVTEQDSKDSTYSLSSTLTLSKADYEKHKVYACEVTHQGLSSPVTKSFNRGEC
notes: DVD-Ig; N-term; AB072 (DLL4), C-term; AB071 (VEGF); HC linker long, LC linker short; also called DVD-Ig DVD503; DVD503H/DVD503L

B11: DVD532 (bispecific antibody, human IgG1, kappa, lambda)
heavy: not shown
light: DIQMTQSPSSLSASVGDRVTITCRASQDVSTAVAWYQQKPGKAPKLLIYSASFLYSGVPSRFSGSGSGTDFTLTISSLQPEDFATYYCQQSYTTPPTFGQGTKVEIKRTVAAPSVFIFPPQAVVTQESALTTSPGETVTLTCRSSTGAVTTSNYANWVQEKPDHLFTGLIGGTNNRAPGVPARFSGSLIGDKAALTITGAQTEDEAIYFCALWYSNHWVFGGGTKLTVLGQPKAAPSVTLFPPSSEELQANKATLVCLISDFYPGAVTVAWKADSSPVKAGVETTTPSKQSNNKYAASSYLSLTPEQWKSHRSYSCQVTHEGSTVEKTVAPTECS
notes: DVD-Ig; N-term; AB070 (VEGF), C-term; AB073 (DLL4); HC linker short, LC linker long; also called DVD-Ig DVD532; DVD532H/DVD532L
- EC50 [3]: 28.9 nM

- EC50 [5]: 21.8 nM
B12: DVD525 (bispecific antibody, human IgG1, kappa)
heavy: not shown
light: QAVVTQESALTTSPGETVTLTCRSSTGAVTTSNYANWVQEKPDHLFTGLIGGTNNRAPGVPARFSGSLIGDKAALTITGAQTEDEAIYFCALWYSNHWVFGGGTKLTVLGQPKAAPDIQMTQSPSSLSASVGDRVTITCRASQDVSTAVAWYQQKPGKAPKLLIYSASFLYSGVPSRFSGSGSGTDFTLTISSLQPEDFATYYCQQSYTTPPTFGQGTKVEIKRTVAAPSVFIFPPSDEQLKSGTASVVCLLNNFYPREAKVQWKVDNALQSGNSQESVTEQDSKDSTYSLSSTLTLSKADYEKHKVYACEVTHQGLSSPVTKSFNRGEC
notes: DVD-Ig; N-term; AB073 (DLL4), C-term; AB070 (VEGF); HC linker long, LC linker short; also called DVD-Ig DVD525; DVD525H/DVD525L
